How the values were obtained:
Settings in all cases: both partners purified
[1] = molecular target: T1, fibrils of 100% Aβ(1–42) (Homo sapiens, UniProt P05067); assay: SPR; Biacore 3000; Aβ oligomers or fibrils captured with pE3-Aβ-specific antibodies (pure pE3-Aβ aggregates) or an N-terminal non-pE3-Aβ-specific antibody (Aβ(1–42) aggregates and mixtures); PBD-C06 antibody injected; Single Cycle Kinetics model; bivalent binding
T1 construct: amyloid beta peptide, residues 1-42; also called Mixed Fibrils 0: 100; source: 350 µM Aβ(1–42), diluted to 50 µM, fibrillated 7 days at 37 °C, pH 8.7

[2] = molecular target: T2, oligomers (AADL) of 100% Aβ(1–42) (Homo sapiens, UniProt P05067); assay: as above
T2 construct: amyloid beta peptide, residues 1-42; also called Mixed Oligomers (AADL) 0: 100; oligomers consisting of 100% Aβ(1–42); source: 2500 µM Aβ(1–42) added to Ham's F-12 medium, 18 hours at 4 °C, supernatant after centrifugation

[3] = molecular target: T3, Aβ(3–40) monomer (Homo sapiens, UniProt P05067); assay: SPR; Biacore 3000; antibody captured on a CM5 chip via immobilised anti-mouse or anti-human antibody; monomeric Aβ peptides injected (240 µl, 30 µl/min), running buffer HBS-EP; 1:1 Langmuir binding model
T3 construct: amyloid beta peptide, residues 3-40, N-terminal glutamate not cyclised

[4] = molecular target: T4, Aβ(1–40) monomer (Homo sapiens, UniProt P05067); assay: as above
T4 construct: amyloid beta peptide, residues 1-40

B1: murine PBD-C06 precursor antibody (antibody, V domains shown)
VH: EVQLQQSGPELVKPGASMKISCKASGYSFTGYTMNWVKQSHGKNLEWIGLINPYNGVTRYNQKFKGKATLIVDKSSSTAYMELLSLTSEDSAVYYCTREAKREWDETYWGQGTLVTVSA
VL: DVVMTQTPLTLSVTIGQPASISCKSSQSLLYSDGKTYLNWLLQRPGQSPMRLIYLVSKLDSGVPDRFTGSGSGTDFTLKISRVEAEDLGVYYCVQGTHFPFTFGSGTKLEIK
notes: murine hybridoma precursor VH; murine heavy chain constant region; murine hybridoma precursor VL; murine light chain constant region, not described; Whole antibody; also called murine precursor antibody
Work on B1 yielded a Kd [1] of 1.81 nM, a Kd [2] of 2.02 nM and a Kd [3] of 796 nM. The koff [3] was 0.0025 s⁻¹, the kon [3] was 3200 M⁻¹ s⁻¹ and the Kd [4] was 6310 nM. It also gave a koff [4] of 0.0025 s⁻¹ and a kon [4] of 390 M⁻¹ s⁻¹.
